Measurements published in the supplement of paper PMC11316812.
± gives the standard deviation of the averaged measurements.

Tests used:
hTERT-HMEC = test: percentage of EdU-negative (G0-arrested) nuclei per well, 72 h; higher = more G0 arrest; conditions: reference: sequence is the full UniProt precursor, the tested protein was the secreted form or ectodomain
MCF7 = test: as above; conditions: reference: sequence is the full UniProt precursor, the tested protein was the secreted form or ectodomain
[1] = protein concentration 0.0211825 µM
[2] = protein concentration 0.211825 µM
[3] = protein concentration 0.0225 µM
[4] = protein concentration 0.0294286 µM
[5] = protein concentration 0.294286 µM
[6] = protein concentration 0.014515 µM
[7] = protein concentration 0.14515 µM
[8] = protein concentration 0.00975 µM
[9] = protein concentration 0.0975 µM
[10] = protein concentration 0.01775 µM
[11] = protein concentration 0.1775 µM
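Further: secreted proteins added to cultured cells, EdU pulse at the end, nuclei found by Hoechst imaging, EdU status from nuclear versus surrounding ring intensity ratio, PBS as neutral control.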

Sequence	percentage of EdU-negative (hTERT-HMEC; [3])	percentage of EdU-negative (hTERT-HMEC; protein concentration 0.225 µM)	percentage of EdU-negative (MCF7; [3])	percentage of EdU-negative (MCF7; protein concentration 0.225 µM)	other results
MARVLGAPVALGLWSLCWSLAIATPLPPTSAHGNVAEGETKPDPDVTERCSDGWSFDATTLDDNGTMLFFKGEFVWKSHKWDRELISERWKNFPSPVDAAFRQGHNSVFLIKGDKVWVYPPEKKEKGYPKLLQDEFPGIPSPLDAAVECHRGECQAEGVLFFQGDREWFWDLATGTMKERSWPAVGNCSSALRWLGRYYCFQGNQFLRFDPVRGEVPPRYPRDVRDYFMPCPGRGHGHRNGTGHGNSTHHGPEYMRCSPHLVLSALTSDNHGATYAFSGTHYWRLDTSRDGWHSWPIAHQWPQGPSAVDAAFSWEEKLYLVQGTQVYVFLTKGGYTLVSGYPKRLEKEVGTPHGIILDSVDAAFICPGSSRLHIMAGRRLWWLDLKSGAQATWTELPWPHEKVDGALCMEKSLGPNSCSANGPGLYLIHGPNLYCYSDVEKLNAAKALPQPQNVTSLLGCTH					percentage of EdU-negative (hTERT-HMEC; [1]): 5.25 ± 0.85%; percentage of EdU-negative (hTERT-HMEC; [2]): 6.11 ± 0.9%; percentage of EdU-negative (MCF7; [1]): 26.5 ± 0.3%; percentage of EdU-negative (MCF7; [2]): 26.7 ± 0.95%
MARVLKAAAANAVGLFSRLQAPIPTVRASSTSQPLDQVTGSVWNLGRLNHVAIAVPDLEKAAAFYKNILGAQVSEAVPLPEHGVSVVFVNLGNTKMELLHPLGRDSPIAGFLQKNKAGGMHHICIEVDNINAAVMDLKKKKIRSLSEEVKIGAHGKPVIFLHPKDCGGVLVELEQA [Q96PE7]	5.15 ± 0.63%	6.08 ± 0.26%	23.93 ± 0.19%	23.1 ± 1.4%	
MARYMLLLLLAVWVLTGELWPGAEARAAPYGVRLCGREFIRAVIFTCGGSRWRRSDILAHEAMGDTFPDADADEDSLAGELDEAMGSSEWLALTKSPQAFYRGRPSWQGTPGVLRGSRDVLAGLSSSCCKWGCSKSEISSLC [Q8WXF3]	4.41 ± 0.39%	5.85 ± 0.42%	26.3 ± 1.9%	26.3 ± 0.94%	
MASEIHMTGPMCLIENTNGRLMANPEALKILSAITQPMVVVAIVGLYRTGKSYLMNKLAGKKKGFSLGSTVQSHTKGIWMWCVPHPKKPGHILVLLDTEGLGDVEKGDNQNDSWIFALAVLLSSTFVYNSIGTINQQAMDQLYYVTELTHRIRSKSSPDENENEVEDSADFVSFFPDFVWTLRDFSLDLEADGQPLTPDEYLTYSLKLKKGTSQKDETFNLPRLCIRKFFPKKKCFVFDRPVHRRKLAQLEKLQDEELDPEFVQQVADFCSYIFSNSKTKTLSGGIQVNGPRLESLVLTYVNAISSGDLPCMENAVLALAQIENSAAVQKAIAHYEQQMGQKVQLPTETLQELLDLHRDSEREAIEVFIRSSFKDVDHLFQKELAAQLEKKRDDFCKQNQEASSDRCSALLQVIFSPLEEEVKAGIYSKPGGYRLFVQKLQDLKKKYYEEPRKGIQAEEILQTYLKSKESMTDAILQTDQTLTEKEKEIEVERVKAESAQASAKMLQEMQRKNEQMMEQKERSYQEHLKQLTEKMENDRVQLLKEQERTLALKLQEQEQLLKEGFQKESRIMKNEIQDLQTKMRRRKACTIS	4.44 ± 0.5%	12.6 ± 1.4%	26.5 ± 3.6%	29.1 ± 1.2%	
MASHSGPSTSVLFLFCCLGGWLASHTLPVRLLRPSDDVQKIVEELQSLSKMLLKDVEEEKGVLVSQNYTLPCLSPDAQPPNNIHSPAIRAYLKTIRQLDNKSVIDEIIEHLDKLIFQDAPETNISVPTDTHECKRFILTISQQFSECMDLALKSLTSGAQQATT [Q6EBC2]	4.96 ± 0.56%	5.69 ± 0.58%	26.6 ± 1.1%	24.9 ± 1.8%	
MASLRVERAGGPRLPRTRVGRPAALRLLLLLGAVLNPHEALAQPLPTTGTPGSEGGTVKNYETAVQFCWNHYKDQMDPIEKDWCDWAMISRPYSTLRDCLEHFAELFDLGFPNPLAERIIFETHQIHFANCSLVQPTFSDPPEDVLLAMIIAPICLIPFLITLVVWRSKDSEAQA	4.96 ± 0.83%	5.12 ± 0.077%	26.4 ± 3.1%	23.7 ± 0.28%	
MASPGCLLCVLGLLLCGAASLELSRPHGDTAKKPIIGILMQKCRNKVMKNYGRYYIAASYVKYLESAGARVVPVRLDLTEKDYEILFKSINGILFPGGSVDLRRSDYAKVAKIFYNLSIQSFDDGDYFPVWGTCLGFEELSLLISGECLLTATDTVDVAMPLNFTGGQLHSRMFQNFPTELLLSLAVEPLTANFHKWSLSVKNFTMNEKLKKFFNVLTTNTDGKIEFISTMEGYKYPVYGVQWHPEKAPYEWKNLDGISHAPNAVKTAFYLAEFFVNEARKNNHHFKSESEEEKALIYQFSPIYTGNISSFQQCYIFD					percentage of EdU-negative (hTERT-HMEC; [4]): 4.45 ± 0.47%; percentage of EdU-negative (hTERT-HMEC; [5]): 4.7 ± 0.28%; percentage of EdU-negative (MCF7; [4]): 25 ± 0.49%; percentage of EdU-negative (MCF7; [5]): 25.9 ± 2.2%
MASPGCLWLLAVALLPWTCASRALQHLDPPAPLPLVIWHGMGDSCCNPLSMGAIKKMVEKKIPGIYVLSLEIGKTLMEDVENSFFLNVNSQVTTVCQALAKDPKLQQGYNAMGFSQGGQFLRAVAQRCPSPPMINLISVGGQHQGVFGLPRCPGESSHICDFIRKTLNAGAYSKVVQERLVQAEYWHDPIKEDVYRNHSIFLADINQERGINESYKKNLMALKKFVMVKFLNDSIVDPVDSEWFGFYRSGQAKETIPLQETSLYTQDRLGLKEMDNAGQLVFLATEGDHLQLSEEWFYAHIIPFLG	4.49 ± 0.2%	9.52 ± 0.25%	25.6 ± 1.6%	26.4 ± 0.39%	
MASRLTLLTLLLLLLAGDRASSNPNATSSSSQDPESLQDRGEGKVATTVISKMLFVEPILEVSSLPTTNSTTNSATKITANTTDEPTTQPTTEPTTQPTIQPTQPTTQLPTDSPTQPTTGSFCPGPVTLCSDLESHSTEAVLGDALVDFSLKLYHAFSAMKKVETNMAFSPFSIASLLTQVLLGAGENTKTNLESILSYPKDFTCVHQALKGFTTKGVTSVSQIFHSPDLAIRDTFVNASRTLYSSSPRVLSNNSDANLELINTWVAKNTNNKISRLLDSLPSDTRLVLLNAIYLSAKWKTTFDPKKTRMEPFHFKNSVIKVPMMNSKKYPVAHFIDQTLKAKVGQLQLSHNLSLVILVPQNLKHRLEDMEQALSPSVFKAIMEKLEMSKFQPTLLTLPRIKVTTSQDMLSIMEKLEFFDFSYDLNLCGLTEDPDLQVSAMQHQTVLELTETGVEAAAASAISVARTLLVFEVQQPFLFVLWDQQHKFPVFMGRVYDPRA					percentage of EdU-negative (hTERT-HMEC; [6]): 5.48 ± 0.2%; percentage of EdU-negative (hTERT-HMEC; [7]): 5.33 ± 0.56%; percentage of EdU-negative (MCF7; [6]): 25.6 ± 1.5%; percentage of EdU-negative (MCF7; [7]): 26 ± 0.75%
MASRWAVQLLLVAAWSMGCGEALKCYTCKEPMTSASCRTITRCKPEDTACMTTLVTVEAEYPFNQSPVVTRSCSSSCVATDPDSIGAAHLIFCCFRDLCNSEL	5.43 ± 0.94%	5.61 ± 1%	23.5 ± 2.8%	26.6 ± 1.9%	
MASSWKLMLFLSVTMCLSEYSKSLPGLSTSYAALLRIKKSSSSSLFGSKTRPRYSSPSLGTLSASSPSWLGAAQNYYSPINLYHSSDAFKQDESVDYGPVFVQEPDDIIFPTDSDEKKVALNCEVRGNPVPSYRWLRNGTEIDLESDYRYSLIDGTFIISNPSEAKDSGHYQCLATNTVGSILSREATLQFAYLGNFSGRTRSAVSVREGQGVVLMCSPPPHSPEIIYSWVFNEFPSFVAEDSRRFISQETGNLYISKVQTSDVGSYICLVKNTVTNARVLSPPTPLTLRNDGVMGEYEPKIEVHFPFTVTAAKGTTVKMECFALGNPVPTITWMKVNGYIPSKARLRKSQAVLEIPNVQLDDAGIYECRAENSRGKNSFRGQLQVYTYPHWVEKLNDTQLDSGSPLRWECKATGKPRPTYRWLKNGVPLSPQSRVEMVNGVLMIHNVNQSDAGMYQCLAENKYGAIYASAELKILASAPTFALNQLKKTIIVTKDQEVVIECKPQGSPKPTISWKKGDRAVRENKRIAILPDGSLRILNASKSDEGKYVCRGENVFGSAEIIASLSVKEPTRIELTPKRTELTVGESIVLNCKAIHDASLDVTFYWTLKGQPIDFEEEGGHFESIRAQASSADLMIRNILLMHAGRYGCRVQTTADSVSDEAELLVRGPPGPPGIVIVEEITESTATLSWSPAADNHSPISSYNLQARSPFSLGWQTVKTVPEIITGDMESAMAVDLNPWVEYEFRVVATNPIGTGDPSTPSRMIRTNEAVPKTAPTNVSGRSGRRHELVIAWEPVSEEFQNGEGFGYIVAFRPNGTRGWKEKMVTSSEASKFIYRDESVPPLTPFEVKVGVYNNKGDGPFSQIVVICSAEGEPSAAPTDVKATSVSVSEILVAWKHIKESLGRPQGFEVGYWKDMEQEDTAETVKTRGNESFVILTGLEGNTLYHFTVRAYNGAGYGPPSSEVSATTKKSPPSQAPSNLRWEQQGSQVSLGWEPVIPLANESEVVGYKVFYRQEGHSNSQVIETQKLQAVVPLPDAGVYIIEVRAYSEGGDGTASSQIRVPSYSGGKITSAQSTLHSLSTSSSSVTLLLALMIPSTSW					percentage of EdU-negative (hTERT-HMEC; [8]): 4.88 ± 0.2%; percentage of EdU-negative (hTERT-HMEC; [9]): 10.4 ± 0.39%; percentage of EdU-negative (MCF7; [8]): 26.6 ± 0.15%; percentage of EdU-negative (MCF7; [9]): 27.7 ± 2.5%
MASTSYDYCRVPMEDGDKRCKLLLGIGILVLLIIVILGVPLIIFTIKANSEACRDGLRAVMECRNVTHLLQQELTEAQKGFQDVEAQAATCNHTVMALMASLDAEKAQGQKKVEELEGEITTLNHKLQDASAEVERLRRENQVLSVRIADKKYYPSSQDSSSAAAPQLLIVLLGLSALLQ	4.74 ± 0.69%	4.84 ± 0.58%	26.3 ± 3.5%	26.7 ± 3.2%	
MASVVLPSGSQCAAAAAAAAPPGLRLRLLLLLFSAAALIPTGDGQNLFTKDVTVIEGEVATISCQVNKSDDSVIQLLNPNRQTIYFRDFRPLKDSRFQLLNFSSSELKVSLTNVSISDEGRYFCQLYTDPPQESYTTITVLVPPRNLMIDIQKDTAVEGEEIEVNCTAMASKPATTIRWFKGNTELKGKSEVEEWSDMYTVTSQLMLKVHKEDDGVPVICQVEHPAVTGNLQTQRYLEVQYKPQVHIQMTYPLQGLTREGDALELTCEAIGKPQPVMVTWVRVDDEMPQHAVLSGPNLFINNLNKTDNGTYRCEASNIVGKAHSDYMLYVYDPPTTIPPPTTTTTTTTTTTTTILTIITDSRAGEEGSIRAVDHAVIGGVVAVVVFAMLCLLIILGRYFARHKGTYFTHEAKGADDAADADTAIINAEGGQNNSEEKKEYFI [Q9BY67]	4.74 ± 0.29%	5.2 ± 0.79%	24.5 ± 1.3%	24.7 ± 1.1%	
MASWLRRKLRGKRRPVIAFCLLMILSAMAVTRFPPQRPSAGPDPGPMEPQGVTGAPATHIRQALSSSRRQRARNMGFWRSRALPRNSILVCAEEQGHRARVDRSRESPGGDLRHPGRVRRDITLSGHPRLSTQHVVLLREDEVGDPGTKDLGHPQHGSPIQETQSEVVTLVSPLPGSDMAALPAWRATSGLTLWPHTAEGRDLLGAENRALTGGQQAEDPTLASGAHQWPGSVEKLQGSVWCDAETLLSSSRTGGQAPPWLTDHDVQMLRLLAQGEVVDKARVPAHGQVLQVGFSTEAALQDLSSPRLSQLCSQGLCGLIKRPGDLPEVLSFHVDRVLGLRRSLPAVARRFHSPLLPYRYTDGGARPVIWWAPDVQHLSDPDEDQNSLALGWLQYQALLAHSCNWPGQAPCPGIHHTEWARLALFDFLLQVHDRLDRYCCGFEPEPSDPCVEERLREKCQNPAELRLVHILVRSSDPSHLVYIDNAGNLQHPEDKLNFRLLEGIDGFPESAVKVLASGCLQNMLLKSLQMDPVFWESQGGAQGLKQVLQTLEQRGQVLLGHIQKHNLTLFRDEDP [Q9UFP1]					percentage of EdU-negative (hTERT-HMEC; [10]): 4.53 ± 0.69%; percentage of EdU-negative (hTERT-HMEC; [11]): 4.83 ± 0.99%; percentage of EdU-negative (MCF7; [10]): 25.4 ± 2.1%; percentage of EdU-negative (MCF7; [11]): 24.5 ± 4.3%
